Test results: US20150125397A1 (AbbVie / Abbott, published 2015)

Legend:
[1] = target: mouse IgM B cell receptor on primary murine B cells (mouse); assay: cell-based or functional assay
[2] = target: mouse IgM (mouse, UniProt P01872 1-454); assay: IgM binding ELISA, mIgM coated on plate
mouse IgM, sequence (P01872 whole entry): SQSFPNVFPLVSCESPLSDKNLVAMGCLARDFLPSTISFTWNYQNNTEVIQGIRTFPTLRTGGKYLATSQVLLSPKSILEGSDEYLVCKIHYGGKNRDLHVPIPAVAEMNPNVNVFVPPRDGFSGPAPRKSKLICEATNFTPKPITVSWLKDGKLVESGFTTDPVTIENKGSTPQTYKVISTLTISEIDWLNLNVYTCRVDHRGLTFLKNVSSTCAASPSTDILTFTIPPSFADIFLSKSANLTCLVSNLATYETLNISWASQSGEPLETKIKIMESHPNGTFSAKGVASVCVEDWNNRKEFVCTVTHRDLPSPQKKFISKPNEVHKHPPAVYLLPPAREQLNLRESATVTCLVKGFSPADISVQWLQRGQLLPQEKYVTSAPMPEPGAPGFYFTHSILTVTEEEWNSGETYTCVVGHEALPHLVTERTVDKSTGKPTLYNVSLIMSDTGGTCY

B1: DVD3754 (bispecific antibody, human IgG1, kappa)
heavy: not shown
light: DVVMTQTPLSLPVSLGDQASISCRSSQSLVHSNGNTYLHWYLQKPGQSPKLLIYKVSNRFSGVPDRFSGSGSGTDFTLKISRVEAEDLGAYFCSQSTHVPYTFGGPTRLEIKRTVAAPSVFIFPPNTVMTQSPTSMFISVGDRVTMNCKASQNVGSDVDWYQQKTGQSPKLLISGTSNRYTGVPDRFTGSGSGTDFTLTISNMQAEDLAVYYCLQYNYNPTFGAGTKLELKRTVAAPSVFIFPPSDEQLKSGTASVVCLLNNFYPREAKVQWKVDNALQSGNSQESVTEQDSKDSTYSLSSTLTLSKADYEKHKVYACEVTHQGLSSPVTKSFNRGEC
notes: Four-chain DVD-Ig; also called IgM/DNA DVD3754
- ^3H incorporation, AM14 TLR9-/- B cells [1]: 1600
- ^3H incorporation, AM14 WT B cells [1]: 35200
- EC50 [2]: 0.117 µg/mL

B2: DVD3751 (bispecific antibody, human IgG1, kappa)
heavy: not shown
light: DVVMTQTPLSLPVSLGDQASISCRSSQSLVHSNGNTYLHWYLQKPGQSPKLLIYKVSNRFSGVPDRFSGSGSGTDFTLKISRVEAEDLGAYFCSQSTHVPYTFGGPTRLEIKRGGSGGGGSGNTVMTQSPTSMFISVGDRVTMNCKASQNVGSDVDWYQQKTGQSPKLLISGTSNRYTGVPDRFTGSGSGTDFTLTISNMQAEDLAVYYCLQYNYNPTFGAGTKLELKRTVAAPSVFIFPPSDEQLKSGTASVVCLLNNFYPREAKVQWKVDNALQSGNSQESVTEQDSKDSTYSLSSTLTLSKADYEKHKVYACEVTHQGLSSPVTKSFNRGEC
notes: Four-chain DVD-Ig
- ^3H incorporation, AM14 TLR9-/- B cells [1]: 1180
- ^3H incorporation, AM14 WT B cells [1]: 35600
- EC50 [2]: 0.191 µg/mL

B3: DVD3756 (bispecific antibody, human IgG1, kappa)
heavy: not shown
light: NTVMTQSPTSMFISVGDRVTMNCKASQNVGSDVDWYQQKTGQSPKLLISGTSNRYTGVPDRFTGSGSGTDFTLTISNMQAEDLAVYYCLQYNYNPTFGAGTKLELKRGGSGGGGSGDVVMTQTPLSLPVSLGDQASISCRSSQSLVHSNGNTYLHWYLQKPGQSPKLLIYKVSNRFSGVPDRFSGSGSGTDFTLKISRVEAEDLGAYFCSQSTHVPYTFGGPTRLEIKRTVAAPSVFIFPPSDEQLKSGTASVVCLLNNFYPREAKVQWKVDNALQSGNSQESVTEQDSKDSTYSLSSTLTLSKADYEKHKVYACEVTHQGLSSPVTKSFNRGEC
notes: Four-chain DVD-Ig
- ^3H incorporation, AM14 TLR9-/- B cells [1]: 459
- ^3H incorporation, AM14 WT B cells [1]: 7790
- EC50 [2]: 0.0331 µg/mL

B4: DVD3757 (bispecific antibody, human IgG1, kappa)
heavy: not shown
light: NTVMTQSPTSMFISVGDRVTMNCKASQNVGSDVDWYQQKTGQSPKLLISGTSNRYTGVPDRFTGSGSGTDFTLTISNMQAEDLAVYYCLQYNYNPTFGAGTKLELKRTVAAPDVVMTQTPLSLPVSLGDQASISCRSSQSLVHSNGNTYLHWYLQKPGQSPKLLIYKVSNRFSGVPDRFSGSGSGTDFTLKISRVEAEDLGAYFCSQSTHVPYTFGGPTRLEIKRTVAAPSVFIFPPSDEQLKSGTASVVCLLNNFYPREAKVQWKVDNALQSGNSQESVTEQDSKDSTYSLSSTLTLSKADYEKHKVYACEVTHQGLSSPVTKSFNRGEC
notes: Four-chain DVD-Ig
- ^3H incorporation, AM14 TLR9-/- B cells [1]: 382
- ^3H incorporation, AM14 WT B cells [1]: 4060
- EC50 [2]: 0.0418 µg/mL

B5: DVD3760 (bispecific antibody, human IgG1, kappa)
heavy: not shown
light: NTVMTQSPTSMFISVGDRVTMNCKASQNVGSDVDWYQQKTGQSPKLLISGTSNRYTGVPDRFTGSGSGTDFTLTISNMQAEDLAVYYCLQYNYNPTFGAGTKLELKRTVAAPDVVMTQTPLSLPVSLGDQASISCRSSQSLVHSNGNTYLHWYLQKPGQSPKLLIYKVSNRFSGVPDRFSGSGSGTDFTLKISRVEAEDLGAYFCSQSTHVPYTFGGPTRLEIKRTVAAPSVFIFPPSDEQLKSGTASVVCLLNNFYPREAKVQWKVDNALQSGNSQESVTEQDSKDSTYSLSSTLTLSKADYEKHKVYACEVTHQGLSSPVTKSFNRGEC
notes: Four-chain DVD-Ig
- ^3H incorporation, AM14 TLR9-/- B cells [1]: 302
- ^3H incorporation, AM14 WT B cells [1]: 4340
- EC50 [2]: 0.0353 µg/mL

B6: DVD3759 (bispecific antibody, human IgG1, kappa)
heavy: not shown
light: NTVMTQSPTSMFISVGDRVTMNCKASQNVGSDVDWYQQKTGQSPKLLISGTSNRYTGVPDRFTGSGSGTDFTLTISNMQAEDLAVYYCLQYNYNPTFGAGTKLELKRTVAAPSVFIFPPDVVMTQTPLSLPVSLGDQASISCRSSQSLVHSNGNTYLHWYLQKPGQSPKLLIYKVSNRFSGVPDRFSGSGSGTDFTLKISRVEAEDLGAYFCSQSTHVPYTFGGPTRLEIKRTVAAPSVFIFPPSDEQLKSGTASVVCLLNNFYPREAKVQWKVDNALQSGNSQESVTEQDSKDSTYSLSSTLTLSKADYEKHKVYACEVTHQGLSSPVTKSFNRGEC
notes: Four-chain DVD-Ig
- ^3H incorporation, AM14 TLR9-/- B cells [1]: 970
- ^3H incorporation, AM14 WT B cells [1]: 18600
- EC50 [2]: 0.0412 µg/mL

B7: DVD3755 (bispecific antibody, human IgG1, kappa)
heavy: not shown
light: DVVMTQTPLSLPVSLGDQASISCRSSQSLVHSNGNTYLHWYLQKPGQSPKLLIYKVSNRFSGVPDRFSGSGSGTDFTLKISRVEAEDLGAYFCSQSTHVPYTFGGPTRLEIKRTVAAPNTVMTQSPTSMFISVGDRVTMNCKASQNVGSDVDWYQQKTGQSPKLLISGTSNRYTGVPDRFTGSGSGTDFTLTISNMQAEDLAVYYCLQYNYNPTFGAGTKLELKRTVAAPSVFIFPPSDEQLKSGTASVVCLLNNFYPREAKVQWKVDNALQSGNSQESVTEQDSKDSTYSLSSTLTLSKADYEKHKVYACEVTHQGLSSPVTKSFNRGEC
notes: Four-chain DVD-Ig
- ^3H incorporation, AM14 TLR9-/- B cells [1]: 402
- ^3H incorporation, AM14 WT B cells [1]: 8500
- EC50 [2]: 0.0971 µg/mL

B8: DVD3752 (bispecific antibody, human IgG1, kappa)
heavy: not shown
light: DVVMTQTPLSLPVSLGDQASISCRSSQSLVHSNGNTYLHWYLQKPGQSPKLLIYKVSNRFSGVPDRFSGSGSGTDFTLKISRVEAEDLGAYFCSQSTHVPYTFGGPTRLEIKRTVAAPNTVMTQSPTSMFISVGDRVTMNCKASQNVGSDVDWYQQKTGQSPKLLISGTSNRYTGVPDRFTGSGSGTDFTLTISNMQAEDLAVYYCLQYNYNPTFGAGTKLELKRTVAAPSVFIFPPSDEQLKSGTASVVCLLNNFYPREAKVQWKVDNALQSGNSQESVTEQDSKDSTYSLSSTLTLSKADYEKHKVYACEVTHQGLSSPVTKSFNRGEC
notes: Four-chain DVD-Ig
- ^3H incorporation, AM14 TLR9-/- B cells [1]: 512
- ^3H incorporation, AM14 WT B cells [1]: 12700
- EC50 [2]: 0.205 µg/mL
